Changes are numbered by the printed parent chain.
B1: CTLA4/CD28Ig hybrid fusion protein HS8 (Fc fusion, not shown: a dimerising Fc or GST)
chain: NKILVKQSPMLVAYDNAYNLSCKYASPGKATEFRASLHKGLDSAVEVCVVYGNYSQQLQVYSKTGFNCDGKLGNESVTFYLQNLYVNQTDIYFCKIELMYPPPYYLGIGNGTQIHVKGKHLCPS
B2: CTLA4/CD28Ig hybrid fusion protein HS4-B (Fc fusion, not shown: a dimerising Fc or GST)
chain: NKILVKQSPMLVAYDNAYNLSCKYSYNLFSREFRASLHKGLDSAVEVCVVYGNYSQQLQVYSKTGFNCDGKLGNESVTFYLQNLYVNQTDIYFCKIEVMYPPPYLDNEKSNGTIIYVIDPEPCPDSD
B3: CTLA4/CD28Ig hybrid fusion protein HS9 (Fc fusion, not shown: a dimerising Fc or GST)
chain: B2 chain with S25A, Y26S, N27P, L28G, F29K, S30A, R31T
B4: CTLA4/CD28Ig hybrid fusion protein HS7 (Fc fusion, not shown: a dimerising Fc or GST)
chain: NKILVKQSPMLVAYDNAYNLSCKYASPGKATEFRASLHKGLDSAVEVCVVYGNYSQQLQVYSKTGFNCDGKLGNESVTFYLQNLYVNQTDIYFCKIELMYPPPYYLGIGNGTQIYVIDPEPCPDSD

Columns and labels:
[1] = target: B7 antigen (B7-1, CD80) expressed on cells (human) (UniProt P33681); assay: enzyme immunoassay on fixed B7-1+ CHO cells
[2] = target: B7 antigen (B7-1, CD80) expressed on cells (human) (UniProt P33681); assay: B7-1+ CHO cell enzyme immunoassay; binding activity relative to CTLA4Ig, from the concentrations giving the same A450

Chain of B7 antigen (B7-1, CD80) expressed on cells (human) (P33681 35-288): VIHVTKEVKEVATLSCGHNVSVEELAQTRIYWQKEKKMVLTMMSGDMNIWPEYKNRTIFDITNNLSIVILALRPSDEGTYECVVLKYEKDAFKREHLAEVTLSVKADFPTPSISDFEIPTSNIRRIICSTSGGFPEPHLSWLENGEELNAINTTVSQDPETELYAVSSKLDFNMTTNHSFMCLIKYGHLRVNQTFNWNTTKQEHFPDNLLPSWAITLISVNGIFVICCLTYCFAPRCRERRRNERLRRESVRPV

Binder	% of wild type binding [1] [%]	% B7 binding activity [2] [%]	% binding activity relative to CTLA4Ig [1] [%]
B1	60	56	–
B2	–	5	–
B3	–	5	–
B4	–	44	44

From patent publication US7105166
